{"source": "paper PMC7900953", "about": "“Location of a single histidine within peptide carriers increases mRNA delivery” (The Journal of Gene Medicine, 2020)", "origin": "cited, not measured here", "test_system": "human cells", "details": "cited from earlier work", "note": "Where no end group is shown, it is not given here.", "data": [{"substance": "H3k4b (KHHHKHHHKHHHKHHHK; also: four-branched lysine core)", "values": [{"measurement": "Cytotoxicity to human cells", "result": "no observed cytotoxicity to human cells"}]}]}
